Assay results published in IntAct's records for PubMed 29892012.

B1: E3 ubiquitin-protein ligase LNX (Homo sapiens), Q8TBB1 (parent)
chain: MNQPESANDPEPLCAVCGQAHSLEENHFYSYPEEVDDDLICHICLQALLDPLDTPCGHTYCTLCLTNFLVEKDFCPMDRKPLVLQHCKKSSILVNKLLNKLLVTCPFREHCTQVLQRCDLEHHFQTSCKGASHYGLTKDRKRRSQDGCPDGCASLTATAPSPEVSAAATISLMTDEPGLDNPAYVSSAEDGQPAISPVDSGRSNRTRARPFERSTIRSRSFKKINRALSVLRRTKSGSAVANHADQGRENSENTTAPEVFPRLYHLIPDGEITSIKINRVDPSESLSIRLVGGSETPLVHIIIQHIYRDGVIARDGRLLPGDIILKVNGMDISNVPHNYAVRLLRQPCQVLWLTVMREQKFRSRNNGQAPDAYRPRDDSFHVILNKSSPEEQLGIKLVRKVDEPGVFIFNVLDGGVAYRHGQLEENDRVLAINGHDLRYGSPESAAHLIQASERRVHLVVSRQVRQRSPDIFQEAGWNSNGSWSPGPGERSNTPKPLHPTITCHEKVVNIQKDPGESLGMTVAGGASHREWDLPIYVISVEPGGVISRDGRIKTGDILLNVDGVELTEVSRSEAVALLKRTSSSIVLKALEVKEYEPQEDCSSPAALDSNHNMAPPSDWSPSWVMWLELPRCLYNCKDIVLRRNTAGSLGFCIVGGYEEYNGNKPFFIKSIVEGTPAYNDGRIRCGDILLAVNGRSTSGMIHACLARLLKELKGRITLTIVSWPGTFL
partner: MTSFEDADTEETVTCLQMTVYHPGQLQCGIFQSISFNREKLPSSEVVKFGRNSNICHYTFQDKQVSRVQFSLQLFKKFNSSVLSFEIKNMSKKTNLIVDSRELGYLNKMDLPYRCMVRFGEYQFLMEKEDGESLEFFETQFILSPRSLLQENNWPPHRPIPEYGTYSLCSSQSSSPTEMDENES
B2: CGG triplet repeat-binding protein 1 (Homo sapiens), Q9UFW8 (parent)
chain: MERFVVTAPPARNRSKTALYVTPLDRVTEFGGELHEDGGKLFCTSCNVVLNHVRKSAISDHLKSKTHTKRKAEFEEQNVRKKQRPLTASLQCNSTAQTEKVSVIQDFVKMCLEANIPLEKADHPAVRAFLSRHVKNGGSIPKSDQLRRAYLPDGYENENQLLNSQDC
partner: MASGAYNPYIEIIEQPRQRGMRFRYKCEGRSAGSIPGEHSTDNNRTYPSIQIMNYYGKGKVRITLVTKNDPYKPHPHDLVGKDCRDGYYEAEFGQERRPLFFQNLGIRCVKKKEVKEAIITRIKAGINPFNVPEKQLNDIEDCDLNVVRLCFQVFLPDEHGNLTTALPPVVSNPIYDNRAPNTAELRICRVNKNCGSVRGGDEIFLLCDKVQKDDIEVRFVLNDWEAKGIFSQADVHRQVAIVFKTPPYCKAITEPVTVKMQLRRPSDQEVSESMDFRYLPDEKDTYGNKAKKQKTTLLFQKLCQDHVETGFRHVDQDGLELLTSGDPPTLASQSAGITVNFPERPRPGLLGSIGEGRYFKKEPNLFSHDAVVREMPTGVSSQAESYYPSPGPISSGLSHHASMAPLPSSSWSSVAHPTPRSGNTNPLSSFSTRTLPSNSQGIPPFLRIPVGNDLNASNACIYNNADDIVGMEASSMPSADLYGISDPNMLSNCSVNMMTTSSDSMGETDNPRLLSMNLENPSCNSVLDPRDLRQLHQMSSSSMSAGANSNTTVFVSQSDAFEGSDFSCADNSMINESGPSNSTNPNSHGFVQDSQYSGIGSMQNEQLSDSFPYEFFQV
B3: E3 ubiquitin-protein ligase LNX (Homo sapiens), Q8TBB1 (parent)
chain: B1 chain
partner: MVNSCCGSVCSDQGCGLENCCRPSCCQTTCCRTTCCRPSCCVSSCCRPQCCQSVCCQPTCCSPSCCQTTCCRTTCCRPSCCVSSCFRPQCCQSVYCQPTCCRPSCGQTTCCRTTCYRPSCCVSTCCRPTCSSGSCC
B4: Isoform 2 of Synaptoporin (Homo sapiens), Q8TBG9-2 (parent)
chain: MDPVSQLASAGTFRVLKEPLAFLRALELLFAIFAFATCGGYSGGLRLSVDCVNKTESNLSIDIAFAYPFRLHQVTFEVPTCEGKERQKLALIGDSSSSAEFFVTVAVFAFLYSLAATVVYIFFQNKYRENNRGPLIDFIVTVVFSFLWLVGSSAWAKGLSDVKVATDPKEVLLLMSACKQPSNKCMAIHSPVMSSLNTSVVFGFLNFILWAGNIWFVFKETGWHSSGQRYLSDPMEKHSSSYNQGGYNQDSYGSSSGYSQQASLGPTSDEFGQQPTGPTSFTNQI
B5: E3 ubiquitin-protein ligase LNX (Homo sapiens), Q8TBB1 (parent)
chain: B1 chain
partner: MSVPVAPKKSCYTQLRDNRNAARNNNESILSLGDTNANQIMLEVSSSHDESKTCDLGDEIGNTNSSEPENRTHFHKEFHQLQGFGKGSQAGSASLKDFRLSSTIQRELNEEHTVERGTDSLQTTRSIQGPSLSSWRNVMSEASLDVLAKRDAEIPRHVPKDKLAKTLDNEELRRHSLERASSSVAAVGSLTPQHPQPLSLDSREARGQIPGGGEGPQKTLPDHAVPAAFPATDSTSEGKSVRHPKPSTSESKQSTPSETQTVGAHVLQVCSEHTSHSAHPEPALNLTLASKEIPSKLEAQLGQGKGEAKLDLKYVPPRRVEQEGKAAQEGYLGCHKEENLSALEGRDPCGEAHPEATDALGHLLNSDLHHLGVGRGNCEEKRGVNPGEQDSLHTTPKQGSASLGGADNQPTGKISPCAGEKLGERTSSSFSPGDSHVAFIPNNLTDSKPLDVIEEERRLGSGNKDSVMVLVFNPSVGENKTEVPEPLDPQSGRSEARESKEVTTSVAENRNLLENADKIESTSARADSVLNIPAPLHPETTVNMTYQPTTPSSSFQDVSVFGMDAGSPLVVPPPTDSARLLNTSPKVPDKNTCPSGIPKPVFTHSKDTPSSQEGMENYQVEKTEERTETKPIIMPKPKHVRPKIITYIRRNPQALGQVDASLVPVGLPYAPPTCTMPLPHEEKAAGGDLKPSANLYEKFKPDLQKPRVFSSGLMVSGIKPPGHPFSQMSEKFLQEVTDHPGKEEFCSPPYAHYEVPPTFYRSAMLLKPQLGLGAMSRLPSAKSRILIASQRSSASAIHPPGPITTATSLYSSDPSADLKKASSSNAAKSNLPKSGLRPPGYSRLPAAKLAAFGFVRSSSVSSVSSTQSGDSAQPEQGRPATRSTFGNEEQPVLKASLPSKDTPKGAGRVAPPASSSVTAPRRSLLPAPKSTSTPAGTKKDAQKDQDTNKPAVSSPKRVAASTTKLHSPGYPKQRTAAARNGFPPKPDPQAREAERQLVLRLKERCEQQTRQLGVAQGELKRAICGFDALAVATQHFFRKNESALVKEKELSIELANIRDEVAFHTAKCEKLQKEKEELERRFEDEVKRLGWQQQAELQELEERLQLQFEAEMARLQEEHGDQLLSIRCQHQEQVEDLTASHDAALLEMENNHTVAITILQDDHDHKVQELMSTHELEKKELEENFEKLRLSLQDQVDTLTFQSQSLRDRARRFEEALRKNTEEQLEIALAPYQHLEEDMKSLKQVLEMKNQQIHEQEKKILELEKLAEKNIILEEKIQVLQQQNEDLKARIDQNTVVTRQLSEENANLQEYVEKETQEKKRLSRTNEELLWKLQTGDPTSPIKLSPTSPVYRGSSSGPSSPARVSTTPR
B6: Rho guanine nucleotide exchange factor 3 (Homo sapiens), Q9NR81 (parent)
chain: MVAKDYPFYLTVKRANCSLELPPASGPAKDAEEPSNKRVKPLSRVTSLANLIPPVKATPLKRFSQTLQRSISFRSESRPDILAPRPWSRNAAPSSTKRRDSKLWSETFDVCVNQMLTSKEIKRQEAIFELSQGEEDLIEDLKLAKKAYHDPMLKLSIMTEQELNQIFGTLDSLIPLHEELLSQLRDVRKPDGSTEHVGPILVGWLPCLSSYDSYCSNQVAAKALLDHKKQDHRVQDFLQRCLESPFSRKLDLWNFLDIPRSRLVKYPLLLREILRHTPNDNPDQQHLEEAINIIQGIVAEINTKTGESECRYYKERLLYLEEGQKDSLIDSSRVLCCHGELKNNRGVKLHVFLFQEVLVITRAVTHNEQLCYQLYRQPIPVKDLLLEDLQDGEVRLGGSLRGAFSNNERIKNFFRVSFKNGSQSQTHSLQANDTFNKQQWLNCIRQAKETVLCAAGQAGVLDSEGSFLNPTTGSRELQGETKLEQMDQSDSESDCSMDTSEVSLDCERMEQTDSSCGNSRHGESNV
partner: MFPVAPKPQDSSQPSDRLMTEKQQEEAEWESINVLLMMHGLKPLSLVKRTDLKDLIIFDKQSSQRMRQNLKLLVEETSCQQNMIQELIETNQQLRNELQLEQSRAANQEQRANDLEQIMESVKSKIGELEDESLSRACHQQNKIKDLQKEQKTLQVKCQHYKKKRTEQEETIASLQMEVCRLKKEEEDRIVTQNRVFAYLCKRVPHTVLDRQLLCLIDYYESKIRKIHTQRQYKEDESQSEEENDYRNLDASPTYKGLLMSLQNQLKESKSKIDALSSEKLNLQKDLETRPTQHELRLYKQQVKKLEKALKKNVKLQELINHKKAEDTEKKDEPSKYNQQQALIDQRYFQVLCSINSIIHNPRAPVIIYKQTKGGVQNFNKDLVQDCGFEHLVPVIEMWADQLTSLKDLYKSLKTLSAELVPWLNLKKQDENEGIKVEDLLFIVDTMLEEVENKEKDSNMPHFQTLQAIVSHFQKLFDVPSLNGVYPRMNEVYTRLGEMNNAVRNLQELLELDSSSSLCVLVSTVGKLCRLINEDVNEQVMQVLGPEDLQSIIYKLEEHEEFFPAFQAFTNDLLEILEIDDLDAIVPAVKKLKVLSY
B7: E3 ubiquitin-protein ligase LNX (Homo sapiens), Q8TBB1 (parent)
chain: B1 chain
partner: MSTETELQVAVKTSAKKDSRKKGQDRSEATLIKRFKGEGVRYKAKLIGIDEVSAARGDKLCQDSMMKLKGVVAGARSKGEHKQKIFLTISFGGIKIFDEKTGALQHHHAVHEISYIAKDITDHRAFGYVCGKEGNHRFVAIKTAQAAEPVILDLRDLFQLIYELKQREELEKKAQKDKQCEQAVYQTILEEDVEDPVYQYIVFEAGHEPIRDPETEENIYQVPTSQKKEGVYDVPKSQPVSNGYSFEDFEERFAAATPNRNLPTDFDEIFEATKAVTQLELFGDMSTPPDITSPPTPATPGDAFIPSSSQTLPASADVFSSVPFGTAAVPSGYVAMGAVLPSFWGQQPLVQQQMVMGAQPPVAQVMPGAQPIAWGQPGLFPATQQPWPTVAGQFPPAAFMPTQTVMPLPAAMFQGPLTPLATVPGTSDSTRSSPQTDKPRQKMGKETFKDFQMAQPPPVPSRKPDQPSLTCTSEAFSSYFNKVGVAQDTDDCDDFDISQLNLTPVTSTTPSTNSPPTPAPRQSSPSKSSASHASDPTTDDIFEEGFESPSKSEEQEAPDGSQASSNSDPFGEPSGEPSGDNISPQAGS

Variants of: B1
Conditions: with tifa_human TIFA

Variant	effect of a mutation on the interaction
E295K	disrupting interaction strength

Variants of: B2
Conditions: with rel_human REL

Variant	effect of a mutation on the interaction
MERFVVTAPPARNRSKTALYVTPLDRVTEFGGELHEDGGKLFCTSCNVVLNHVCKSAISDHLKSKTHTKRKAEFEEQNVRKKQRPLTASLQCNSTAQTEKVSVIQDFVKMCLEANIPLEKADHPAVRAFLSRHVKNGGSIPKSDQLRRAYLPDGYENENQLLNSQDC [R54C]	disrupting interaction strength

Variants of: B3
Conditions: with kra42_human KRTAP4-2, Q9BYR5

Variant	effect of a mutation on the interaction
E295K	disrupting interaction strength

Variants of: B4
Conditions: with creb3_human CREB3, O43889
Sequence of creb3_human CREB3, O43889 (O43889 whole entry): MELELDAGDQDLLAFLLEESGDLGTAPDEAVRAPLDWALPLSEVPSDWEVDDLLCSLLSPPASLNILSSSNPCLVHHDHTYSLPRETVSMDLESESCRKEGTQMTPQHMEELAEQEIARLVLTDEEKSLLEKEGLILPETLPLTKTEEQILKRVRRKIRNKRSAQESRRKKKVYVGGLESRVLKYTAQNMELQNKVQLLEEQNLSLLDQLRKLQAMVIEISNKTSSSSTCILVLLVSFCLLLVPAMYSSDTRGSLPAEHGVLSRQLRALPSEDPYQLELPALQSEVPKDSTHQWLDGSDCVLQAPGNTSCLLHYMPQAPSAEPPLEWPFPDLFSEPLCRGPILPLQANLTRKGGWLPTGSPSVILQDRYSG

Variant	effect of a mutation on the interaction
A115P	with no effect

Variants of: B5
Conditions: with mtus2_human MTUS2, Q5JR59

Variant	effect of a mutation on the interaction
E295K	disrupting interaction strength

Variants of: B6
Conditions: with cep70_human CEP70, Q8NHQ1

Variant	effect of a mutation on the interaction
MVAKDYPFYLTVKRANCSLELPPASGPAKDAEESSNKRVKPLSRVTSLANLIPPVKATPLKRFSQTLQRSISFRSESRPDILAPRPWSRNAAPSSTKRRDSKLWSETFDVCVNQMLTSKEIKRQEAIFELSQGEEDLIEDLKLAKKAYHDPMLKLSIMTEQELNQIFGTLDSLIPLHEELLSQLRDVRKPDGSTEHVGPILVGWLPCLSSYDSYCSNQVAAKALLDHKKQDHRVQDFLQRCLESPFSRKLDLWNFLDIPRSRLVKYPLLLREILRHTPNDNPDQQHLEEAINIIQGIVAEINTKTGESECRYYKERLLYLEEGQKDSLIDSSRVLCCHGELKNNRGVKLHVFLFQEVLVITRAVTHNEQLCYQLYRQPIPVKDLLLEDLQDGEVRLGGSLRGAFSNNERIKNFFRVSFKNGSQSQTHSLQANDTFNKQQWLNCIRQAKETVLCAAGQAGVLDSEGSFLNPTTGSRELQGETKLEQMDQSDSESDCSMDTSEVSLDCERMEQTDSSCGNSRHGESNV [P34S]	with no effect

Variants of: B7
Conditions: with dab1_human DAB1, O75553

Variant	effect of a mutation on the interaction
E295K	disrupting interaction strength
